From PMC12802153, “Cryo-EM reveals the structural heterogeneity and conformational flexibility of multidrug efflux pumps MdtB and MdtF” (mBio, 2025)

Molecular target: the molecule itself
Experiment: SEC; Superdex 200 Increase 10/300 GL, 25 mM HEPES pH 7.5, 100 mM NaCl, 0.03% DDM; elution volume compared with the trimeric molecular weight

B1: MdtB, multidrug efflux HAE-RND transporter from Escherichia coli (natural protein)
chain: MQVLPPSSTGGPSRLFIMRPVATTLLMVAILLAGIIGYRALPVSALPEVDYPTIQVVTLYPGASPDVMTSAVTAPLERQFGQMSGLKQMSSQSSGGASVITLQFQLTLPLDVAEQEVQAAINAATNLLPSDLPNPPVYSKVNPADPPIMTLAVTSTAMPMTQVEDMVETRVAQKISQISGVGLVTLSGGQRPAVRVKLNAQAIAALGLTSETVRTAITGANVNSAKGSLDGPSRAVTLSANDQMQSAEEYRQLIIAYQNGAPIRLGDVATVEQGAENSWLGAWANKEQAIVMNVQRQPGANIISTADSIRQMLPQLTESLPKSVKVTVLSDRTTNIRASVDDTQFELMMAIALVVMIIYLFLRNIPATIIPGVAVPLSLIGTFAVMVFLDFSINNLTLMALTIATGFVVDDAIVVIENISRYIEKGEKPLAAALKGAGEIGFTIISLTFSLIAVLIPLLFMGDIVGRLFREFAITLAVAILISAVVSLTLTPMMCARMLSQESLRKQNRFSRASEKMFDRIIAAYGRGLAKVLNHPWLTLSVALSTLLLSVLLWVFIPKGFFPVQDNGIIQGTLQAPQSSSFANMAQRQRQVADVILQDPAVQSLTSFVGVDGTNPSLNSARLQINLKPLDERDDRVQKVIARLQTAVDKVPGVDLFLQPTQDLTIDTQVSRTQYQFTLQATSLDALSTWVPQLMEKLQQLPQLSDVSSDWQDKGLVAYVNVDRDSASRLGISMADVDNALYNAFGQRLISTIYTQANQYRVVLEHNTENTPGLAALDTIRLTSSDGGVVPLSSIAKIEQRFAPLSINHLDQFPVTTISFNVPDNYSLGDAVQAIMDTEKTLNLPVDITTQFQGSTLAFQSALGSTVWLIVAAVVAMYIVLGILYESFIHPITILSTLPTAGVGALLALLIAGSELDVIAIIGIILLIGIVKKNAIMMIDFALAAEREQGMSPREAIYQACLLRFRPILMTTLAALLGALPLMLSTGVGAELRRPLGIGMVGGLIVSQVLTLFTTPVIYLLFDRLALWTKSRFARHEEEA
notes: MdtB, RND inner membrane transporter of the MdtABC system, Escherichia coli; gene PCR amplified from E. coli genomic DNA, cloned into pET21a(+) between NdeI and XhoI; wild type; the whole gene appears to have been cloned. ~110 kDa band on SDS-PAGE; also called homotrimeric MdtB; source: E. coli BL21ΔacrB acrD mdtABC (NKE1317), purified (2% DDM extraction, Ni-NTA, SEC in 0.03% DDM); for cryo-EM …
B1 was tested, and the “stoichiometry N” value was 3.

B2: MdtF, multidrug efflux HAE-RND transporter from Escherichia coli (natural protein)
chain: MANYFIDRPVFAWVLAIIMMLAGGLAIMNLPVAQYPQIAPPTITVSATYPGADAQTVEDSVTQVIEQNMNGLDGLMYMSSTSDAAGNASITLTFETGTSPDIAQVQVQNKLQLAMPSLPEAVQQQGISVDKSSSNILMVAAFISDNGSLNQYDIADYVASNIKDPLSRTAGVGSVQLFGSEYAMRIWLDPQKLNKYNLVPSDVISQIKVQNNQISGGQLGGMPQAADQQLNASIIVQTRLQTPEEFGKILLKVQQDGSQVLLRDVARVELGAEDYSTVARYNGKPAAGIAIKLAAGANALDTSRAVKEELNRLSAYFPASLKTVYPYDTTPFIEISIQEVFKTLVEAIILVFLVMYLFLQNFRATIIPTIAVPVVILGTFAILSAVGFTINTLTMFGMVLAIGLLVDDAIVVVENVERVIAEDKLPPKEATHKSMGQIQRALVGIAVVLSAVFMPMAFMSGATGEIYRQFSITLISSMLLSVFVAMSLTPALCATILKAAPEGGHKPNALFARFNTLFEKSTQHYTDSTRSLLRCTGRYMVVYLLICAGMAVLFLRTPTSFLPEEDQGVFMTTAQLPSGATMVNTTKVLQQVTDYYLTKEKDNVQSVFTVGGFGFSGQGQNNGLAFISLKPWSERVGEENSVTAIIQRAMIALSSINKAVVFPFNLPAVAELGTASGFDMELLDNGNLGHEKLTQARNELLSLAAQSPNQVTGVRPNGLEDTPMFKVNVNAAKAEAMGVALSDINQTISTAFGSSYVNDFLNQGRVKKVYVQAGTPFRMLPDNINQWYVRNASGTMAPLSAYSSTEWTYGSPRLERYNGIPSMEILGEAAAGKSTGDAMKFMADLVAKLPAGVGYSWTGLSYQEALSSNQAPALYAISLVVVFLALAALYESWSIPFSVMLVVPLGVVGALLATDLRGLSNDVYFQVGLLTTIGLSAKNAILIVEFAVEMMQKEGKTPIEAIIEAARMRLRPILMTSLAFILGVLPLVISHGAGSGAQNAVGTGVMGGMFAATVLAIYFVPVFFVVVEHLFARFKKA
notes: MdtF, RND inner membrane transporter of the MdtEF system, Escherichia coli; gene PCR amplified from E. coli genomic DNA, cloned into pET21a(+) between NdeI and XhoI; wild type; the whole gene appears to have been cloned. ~110 kDa band on SDS-PAGE; source: E. coli BL21ΔacrB acrD mdtABC (NKE1317), purified (2% DDM extraction, Ni-NTA, SEC in 0.03% DDM)
In the case of B2, the “stoichiometry N” value is reported as 3.
